{"source": "paper PMC11070302", "about": "(Drug resistance updates : reviews and commentaries in …, 2024)", "proteins": {"B1": {"name": "PEPD^G278D, a recombinant and enzymatically inactive mutant of human peptidase D (enzyme, UniProt P12955 1-493, looked up)", "chain": "MAAATGPSFWLGNETLKVPLALFALNRQRLCERLRKNPAVQAGSIVVLQGGEETQRYCTDTGVLFRQESFFHWAFGVTEPGCYGVIDVDTGKSTLFVPRLPASHATWMGKIHSKEHFKEKYAVDDVQYVDEIASVLTSQKPSVLLTLRGVNTDSGSVCREASFDGISKFEVNNTILHPEIVECRVFKTDMELEVLRYTNKISSEAHREVMKAVKVGMKEYELESLFEHYCYSRGGMRHSSYTCICGSGENSAVLHYGHAGAPNDRTIQNGDMCLFDMDGEYYCFASDITCSFPANGKFTADQKAVYEAVLRSSRAVMGAMKPGVWWPDMHRLADRIHLEELAHMGILSGSVDAMVQAHLGAVFMPHGLGHFLGIDVHDVGGYPEGVERIDEPGLRSLRTARHLQPGMVLTVEPGIYFIDHLLDEALADPARASFLNREVLQRFRGFGGVRIEEDVVVTDSGIELLTCVPRTVEEIEACMAGCDKAFTPFSGPK"}}, "target": "the molecule itself", "assay": "non-reducing SDS-PAGE and protein staining"}
{"protein": "B1", "values": [{"measurement": "stoichiometry N", "value": 2}]}
